The source of these data is patent US20240191188A1 (JUNO THERAPEUTICS, published 2024).

In this assay the target is T1, soluble oligomeric streptavidin mutein (oligomer of Strep-tactin, n≥3, crosslinked with sulfo-SMCC and … (Streptomyces avidinii, UniProt P22629 38-163, chemically crosslinked with sulfo-SMCC and iminothiolan)).
T1 construct: Oligomers of homo-tetramers separated from monomeric and dimeric mutein by size exclusion chromatography; no single molecular weight; also called soluble oligomeric Strep-tactin; oligomeric mutein streptavidin
In words: mixing of peptide-tagged Fab with soluble oligomeric streptavidin mutein at room temperature.

B1: αCD28 Fab fragment derived from the monoclonal anti-human CD28 antibody CD28.3, heavy chain carboxy-terminally fused to the Twin-Strep-tag (monomeric) (Fab)
heavy (part 1 of 2): LQQSGAELVKPGASVRLSCKASGYTFTEYIIHWIKLRSGQGLEWIGWFYPGSNDIQYNAKFKGKATLTADKSSSTVYMELTGLTSEDSAVYFCARRDDFSGYDALPYWGQGTMVTV
heavy (part 2 of 2): not shown
light: DIQMTQSPASLSVSVGETVTITCRTNENIYSNLAWYQQKQGKSPQLLIYAATHLVEGVPSRFSGSGSGTQYSLKITSLQSEDFGNYYCQHFWGTPCTFGGGTKLEIKR
notes: Recombinantly produced in E. coli; also called anti-CD28 Fab fragment; αCD28 Fab fragment of the antibody 28.3; not shown: human kappa light chain constant domain
In the case of B1, the binding result is given as “binds”.
